Assays:
[1] = biological target: M2-1 fused to the N2 complementation fragment of NanoLuc (human respiratory syncytial virus, strain Long); assay: split reporter (BiFC, NanoBiT); NanoLuc two-hybrid (N2H) complementation in HEK293T cells, 24 h after transfection; lysates incubated 1 h with 100 µg/ml RNAse A; normalized luminescence ratio (NLR) over control protein pairs
[2] = biological target: M2-1 fused to GFP, expressed by the recombinant virus RSV-M2-1-GFP (human respiratory syncytial virus, strain Long); assay: co-IP; GFP-Trap beads on lysates of HEp-2 cells infected with RSV-M2-1-GFP, 14 h p.i., without RNAse in the lysis; immunoblot
[3] = biological target: M2-1 fused to GFP, expressed by the recombinant virus RSV-M2-1-GFP (human respiratory syncytial virus, strain Long); assay: co-IP; GFP-Trap beads on lysates of HEp-2 cells infected with RSV-M2-1-GFP or RSV-GFP (control), 14 h p.i., with RNAse (RNAse A or broad-spectrum nuclease) in the lysis; Tris 10 mM pH 7.5, NaCl 150 mM, IGEPAL CA-630 0.5%; overnight at 4 °C; immunoblot

PABPC1 fragment 492-636 fused to the N1 fragment of NanoLuc (from UniProt P11940 492-636) (domain or fragment)
NLR as percent of the signal of the whole PABPC1 [1]: 50%

cytoplasmic polyA-binding protein 1 (PABPC1), endogenous in HEp-2 cells (from UniProt P11940 1-636) (natural protein)
percent of total PABPC1 in the input co-immunoprecipitated [2]: 5.71% | percent of total PABPC1 in the input co-immunoprecipitated [3]: 2.08%

Source: publication PMC6813310
